Eight substances from patent US20140024606A1 can be followed below.

A value given as a limit tells only on which side of the number the result lay.

The target in assay [1] is IL-1 receptor (IL-1R) on cells (UniProt P14778). Nature of the assay: cell-based or functional assay.
Assay [2] has as its target CD36 on RAW 264.7 murine macrophage cells (murine) (UniProt Q08857). Briefly: cell-based or functional assay.
The target of assay [3] is recombinant soluble His-tagged CD36. Briefly: SPR; His-tagged soluble CD36 immobilized, peptide 100 nM to 30 µM, Langmuir isotherm fit. In general terms: In SPR one partner is held on a chip, and binding of the other changes the refractive index at the surface.
Sequence of recombinant soluble His-tagged CD36 (P16671 30-439): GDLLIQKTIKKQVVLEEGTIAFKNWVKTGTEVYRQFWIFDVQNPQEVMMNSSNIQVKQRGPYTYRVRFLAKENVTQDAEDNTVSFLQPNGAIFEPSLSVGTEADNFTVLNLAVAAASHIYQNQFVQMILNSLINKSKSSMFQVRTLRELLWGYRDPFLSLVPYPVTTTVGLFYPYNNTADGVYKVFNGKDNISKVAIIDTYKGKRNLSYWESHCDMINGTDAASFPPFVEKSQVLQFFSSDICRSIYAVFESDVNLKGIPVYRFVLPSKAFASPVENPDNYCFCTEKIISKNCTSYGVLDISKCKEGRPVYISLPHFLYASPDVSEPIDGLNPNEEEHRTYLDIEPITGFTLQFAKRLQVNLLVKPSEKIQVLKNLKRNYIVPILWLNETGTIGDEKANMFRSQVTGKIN

Sequence of CD36 on RAW 264.7 murine macrophage cells (murine) (Q08857 whole entry): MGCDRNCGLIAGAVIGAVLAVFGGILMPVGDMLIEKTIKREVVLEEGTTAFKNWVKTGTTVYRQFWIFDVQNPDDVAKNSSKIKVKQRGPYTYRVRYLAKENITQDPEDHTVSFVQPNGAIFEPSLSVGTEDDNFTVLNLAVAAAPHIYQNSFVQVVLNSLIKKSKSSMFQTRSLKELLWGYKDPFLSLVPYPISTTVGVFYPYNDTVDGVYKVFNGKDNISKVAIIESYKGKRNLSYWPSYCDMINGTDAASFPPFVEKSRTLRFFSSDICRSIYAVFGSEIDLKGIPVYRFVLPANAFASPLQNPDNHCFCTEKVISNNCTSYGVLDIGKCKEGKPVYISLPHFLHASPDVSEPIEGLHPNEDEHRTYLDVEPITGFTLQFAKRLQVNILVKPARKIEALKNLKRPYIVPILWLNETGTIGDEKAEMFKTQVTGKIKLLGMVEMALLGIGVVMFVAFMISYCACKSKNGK
Sequence of IL-1 receptor (IL-1R) on cells (P14778 18-569 limits assumed): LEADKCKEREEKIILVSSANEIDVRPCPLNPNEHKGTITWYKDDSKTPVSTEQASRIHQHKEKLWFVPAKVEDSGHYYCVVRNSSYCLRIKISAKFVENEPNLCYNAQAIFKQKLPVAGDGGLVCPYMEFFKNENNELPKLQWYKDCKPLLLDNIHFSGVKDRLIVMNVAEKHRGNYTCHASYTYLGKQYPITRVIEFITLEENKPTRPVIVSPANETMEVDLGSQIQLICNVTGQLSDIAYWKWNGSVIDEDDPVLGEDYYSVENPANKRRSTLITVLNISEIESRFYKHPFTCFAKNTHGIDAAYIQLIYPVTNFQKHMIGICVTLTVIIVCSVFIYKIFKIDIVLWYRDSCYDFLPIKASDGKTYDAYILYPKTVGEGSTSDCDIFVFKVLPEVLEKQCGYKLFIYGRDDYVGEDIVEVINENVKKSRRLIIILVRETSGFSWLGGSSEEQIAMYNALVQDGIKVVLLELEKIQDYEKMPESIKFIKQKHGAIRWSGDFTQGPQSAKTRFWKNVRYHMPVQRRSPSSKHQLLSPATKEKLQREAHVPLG

Regarding “Kineret (from UniProt P18510 26-177) (ligand)”, the decrease in NF-KB activation in HEK Blue cells (SEAP reporter, OD620) in assay [1] amounted to 100%.
On to [(R)-Agl^3]-101.10 (peptide), for which the IL-1β-induced human thymocyte (TF-1) proliferation in assay [1] was determined as 41%.
The term Kd denotes a measure of binding affinity in units of concentration. “[N-Amino-4-benzylimidazolin-2-one^4]GHRP-6 (His-D-Trp-Ala-(N-amino-4-benzyl-imidazolin-2-one)-D-Phe-Lys-NH2), 31b (peptide)” gave a JNK-kinase cellular assay EC50 in assay [2] of more than 10 µM. Besides, in assay [3], the Kd came to 11 µM and the ΔλSPR (nm) stood at 1.6 nm.
“[N-Amino-4-methylimidazolin-2-one^4]GHRP-6 (His-D-Trp-Ala-(N-amino-4-methyl-imidazolin-2-one)-D-Phe-Lys-NH2), RS-31a (peptide)” came in with a JNK-kinase cellular assay EC50 in assay [2] of 0.0554 µM. In assay [3], the Kd amounted to 4.9 µM and the ΔλSPR (nm) is 1.1 nm.
Take “[Nad^3]-101.10 (D-Arg-D-Tyr-Nad-D-Val-D-Glu-D-Leu-D-Ala-NH2) (peptide)”: the IL-1β-induced human thymocyte (TF-1) proliferation in assay [1] was 53%.
In assay [1], “[Nai^3]-101.10 (D-Arg-D-Tyr-Nai-D-Val-D-Glu-D-Leu-D-Ala-NH2) (peptide)” registered an IL-1β-induced human thymocyte (TF-1) proliferation of 77% and a decrease in NF-KB activation in HEK Blue cells (SEAP reporter, OD620) of 65%.
For “[Nap^3]-101.10 (D-Arg-D-Tyr-Nap-D-Val-D-Glu-D-Leu-D-Ala-NH2) (peptide)”, the IL-1β-induced human thymocyte (TF-1) proliferation in assay [1] was found to be 41%.
Regarding “[azaTyr^4]GHRP-6 (His-D-Trp-Ala-AzaTyr-D-Phe-Lys-NH2) (peptide)”, the JNK-kinase cellular assay EC50 in assay [2] was found to be 0.214 µM. Moreover, in assay [3], the Kd was found to be 5 µM and the ΔλSPR (nm) came out at 1.8 nm.
